We go through 1 substance from PMC3404105.

Assay [1] addresses Src family kinase 1 (SFK1) (Lytechinus pictus (endogenous in eggs and egg extract)). As to the kind of experiment: FRET or BRET; time-resolved FRET by two-photon time-domain FLIM; L. pictus eggs three minutes post-fertilisation (T+3), fixed, labelled with anti-PLCγ-OG488 (donor) and anti-SFK1-Cy5 (acceptor); ROI whole egg or male pronucleus.
For assay [2] the target is unchanged. Briefly: FRET or BRET; FRET by single-photon multi-frequency domain FLIM; cell-free assay, demembranated sperm nuclei decondensed in fertilised egg extract (S10) with ATP-GS, no GTP; fixed, labelled with anti-PLCγ-OG488 (donor) and anti-SFK1-Alexa 546 (acceptor).
For assay [3] the target is unchanged. As to the kind of experiment: FRET or BRET; time-resolved FRET by two-photon time-domain FLIM; unfertilised L. pictus eggs (T0), fixed, labelled with anti-PLCγ-OG488 (donor) and anti-SFK1-Cy5 (acceptor); FRET efficiency from donor lifetime.

For phospholipase Cγ (PLCγ) (enzyme), in assay [1], the FRET efficiency % (MPN ROI) amounted to 4.8% and the FRET efficiency % (egg ROI) worked out at 5.3%. In assay [2], the FRET efficiency was 5.7%. The substance also returned an FRET efficiency % (egg ROI) in assay [3] of 18.9%.
